± gives the uncertainty stated by the source.
B1: Gamma-crystallin C, residues 91 to 170; numbered along this chain, P07315 (parent)
chain: RLYEREDHKGLMMELSEDCPSIQDRFHLSEIRSLHVLEGCWVLYELPNYRGRQYLLRPQEYRRCQDWGAMDAKAGSLRRV

Variants of: B1
Test: abundance fitness (aPCA) (normalised: wild type 0, dead -1); higher = more abundant; growth selection in yeast, the domain comes from the species named
Details: Homo sapiens

| Variant | abundance fitness |
| --- | --- |
| S21H | -0.184 ± 0.14 |
| S21W | -0.904 ± 0.16 |
| S21I | -0.842 ± 0.14 |
| S21L | -0.761 ± 0.1 |
| S21C | -0.089 ± 0.086 |
| S21D | -0.07 ± 0.14 |
| S21K | -0.472 ± 0.19 |
| R52L | -0.219 ± 0.087 |
| R52H | -0.324 ± 0.19 |
| R52C | -0.587 ± 0.31 |
| R52S | -0.234 ± 0.12 |
| R50P | -0.916 ± 0.23 |
| R50K | -0.029 ± 0.16 |
| R50T | -0.002 ± 0.096 |
| R50E | -0.068 ± 0.096 |
| R50N | -0.242 ± 0.31 |
| R50L | -0.063 ± 0.062 |
| R50S | -0.007 ± 0.087 |
| R25W | -0.134 ± 0.053 |
| R25L | -0.184 ± 0.085 |
| R25T | -0.148 ± 0.089 |
| R25D | -0.396 ± 0.19 |
| R25P | -0.736 ± 0.38 |
| R25C | -0.339 ± 0.15 |

| Variant | abundance fitness |
| --- | --- |
| R1G | -0.879 ± 0.15 |
| R1D | -0.857 ± 0.34 |
| R1I | 0.241 ± 0.42 |
| A69V | -0.818 ± 0.22 |
| A69Q | -0.38 ± 0.054 |
| A69R | -0.964 ± 0.29 |
| L2Y | -0.936 ± 0.41 |
| L2M | -0.346 ± 0.042 |
| A72S | -0.058 ± 0.064 |
| A72N | -0.066 ± 0.17 |
| A72M | -0.997 ± 0.35 |
| E4D | -0.153 ± 0.098 |
| E4H | -0.571 ± 0.15 |
| E4I | -0.746 ± 0.22 |
| E4P | -0.341 ± 0.11 |
| E4Y | -0.7 ± 0.25 |
| G75V | -0.815 ± 0.17 |
| G75E | -0.984 ± 0.49 |
| G75A | -0.607 ± 0.095 |
| G75R | -0.933 ± 0.14 |
| G75C | -0.516 ± 0.25 |
| G75P | -0.84 ± 0.18 |
| G75N | -0.767 ± 0.46 |
| R79S | -0.202 ± 0.29 |

| Variant | abundance fitness |
| --- | --- |
| I31Q | -0.992 ± 0.2 |
| Y49H | -0.94 ± 0.23 |
| Y49L | -0.906 ± 0.16 |
| Y49G | -1.11 ± 0.48 |
| Y49S | -0.891 ± 0.17 |
| Y49P | -0.942 ± 0.29 |
| Y54M | -0.692 ± 0.23 |
| S16C | -0.096 ± 0.07 |
| S16T | -0.129 ± 0.1 |
| S16R | -0.082 ± 0.054 |
| S16A | -0.043 ± 0.075 |
| S16F | -0.123 ± 0.084 |
| D24S | -0.067 ± 0.052 |
| A74P | -0.779 ± 0.13 |
| A74I | 0.124 ± 0.24 |
| A74S | -0.314 ± 0.062 |
| A74G | -0.454 ± 0.1 |
| S29A | -0.161 ± 0.076 |
| S29C | -0.237 ± 0.082 |
| S29E | -0.112 ± 0.097 |
| G68V | -0.985 ± 0.29 |
| G68Q | -0.763 ± 0.2 |
| V80F | -0.1 ± 0.17 |
| Q53C | -0.219 ± 0.1 |

| Variant | abundance fitness |
| --- | --- |
| Q53K | -0.19 ± 0.17 |
| Q53Y | -0.159 ± 0.096 |
| Q53T | -0.197 ± 0.12 |
| Q53P | -0.144 ± 0.053 |
| Q53V | -0.747 ± 0.18 |
| M12Y | -0.063 ± 0.25 |
| M12L | -0.238 ± 0.045 |
| M12C | -0.288 ± 0.11 |
| M12Q | -0.636 ± 0.37 |
| D18Y | -0.748 ± 0.36 |
| D18Q | -0.935 ± 0.35 |
| D18V | -1.01 ± 0.17 |
| D18T | -0.805 ± 0.17 |
| D18E | -0.675 ± 0.11 |
| D18G | -0.936 ± 0.097 |
| R32Y | -0.417 ± 0.21 |
| R32F | -0.683 ± 0.23 |
| R32K | -0.018 ± 0.1 |
| R32V | -0.808 ± 0.14 |
| R32W | -0.631 ± 0.14 |
| Q23I | 0.007 ± 0.17 |
| Q23R | -0.128 ± 0.047 |
| Q23W | 0.003 ± 0.056 |
| Q23K | -0.043 ± 0.092 |

| Variant | abundance fitness |
| --- | --- |
| Q23Y | -0.17 ± 0.14 |
| R62G | -0.237 ± 0.074 |
| R62V | -0.365 ± 0.093 |
| R62E | -0.6 ± 0.15 |
| K9D | -0.254 ± 0.083 |
| K9W | -0.909 ± 0.36 |
| K9R | -0.132 ± 0.07 |
| K9Y | -0.467 ± 0.24 |
| K9Q | 0.117 ± 0.11 |
| E14S | -0.25 ± 0.06 |
| E14P | -0.269 ± 0.074 |
| E14Q | -0.227 ± 0.082 |
| E14V | -0.227 ± 0.086 |
| Y61R | -1.06 ± 0.21 |
| Y61V | -1.05 ± 0.26 |
| Y61I | -0.808 ± 0.37 |
| Y61G | -0.925 ± 0.16 |
| S76I | 0.016 ± 0.29 |
| S76A | -0.628 ± 0.14 |
| L11C | -0.08 ± 0.095 |
| L11D | -0.248 ± 0.092 |
| L11I | -0.116 ± 0.1 |
| L11W | -0.289 ± 0.067 |
| L11H | -0.144 ± 0.1 |

| Variant | abundance fitness |
| --- | --- |
| L11A | -0.13 ± 0.042 |
| L11Q | -0.127 ± 0.1 |
| R57W | -0.179 ± 0.092 |
| R57S | 0.018 ± 0.065 |
| R57M | -0.297 ± 0.097 |
| R57G | -0.134 ± 0.061 |
| R57F | -0.067 ± 0.23 |
| R57K | -0.148 ± 0.24 |
| R57N | 0.021 ± 0.16 |
| R57E | -0.064 ± 0.1 |
| E17S | -0.155 ± 0.057 |
| E17H | -0.564 ± 0.17 |
| E17L | -0.544 ± 0.09 |
| E17N | -0.477 ± 0.27 |
| C19A | -0.836 ± 0.15 |
| C19K | -0.623 ± 0.2 |
| C19E | -0.369 ± 0.11 |
| C19Y | -0.712 ± 0.14 |
| R5H | 0.185 ± 0.15 |
| R5D | -0.175 ± 0.12 |
| R5M | 0.047 ± 0.13 |
| R5L | -0.029 ± 0.084 |
| R5V | -0.429 ± 0.079 |
| R5P | -0.788 ± 0.32 |

| Variant | abundance fitness |
| --- | --- |
| R5T | -0.747 ± 0.33 |
| M13S | -0.441 ± 0.074 |
| M13D | -0.706 ± 0.22 |
| M13R | -0.261 ± 0.051 |
| M13E | -0.327 ± 0.14 |
| C64L | -0.841 ± 0.099 |
| C64V | -0.596 ± 0.091 |
| P20Y | -0.996 ± 0.4 |
| P20A | -0.025 ± 0.065 |
| P20D | -0.24 ± 0.19 |
| L56I | -0.515 ± 0.25 |
| L15T | -0.389 ± 0.14 |
| L15C | -0.09 ± 0.081 |
| L15S | -0.832 ± 0.099 |
| L15F | -0.134 ± 0.18 |
| L15A | -0.477 ± 0.1 |
| L15D | -0.736 ± 0.33 |
| N48F | 0.077 ± 0.11 |
| N48K | -0.215 ± 0.14 |
| N48A | -0.348 ± 0.13 |
| N48V | -0.929 ± 0.24 |
| N48C | -0.339 ± 0.17 |
| N48G | -0.07 ± 0.055 |

Source: the Human Domainome abundance scans (Beltran et al. 2025)
